# Assay results reported in patent US7662583B2, “Bioreactor containing cells expressing glycosyltransferase nucleic acids isolatable from Arabidopsis” (The University of York, priority 2003, dated 2010).
# Assay: UGT enzyme reaction with quercetin (recombinant UGTs, HPLC)
# Assay type: biochemical, Arabidopsis
# Settings: 0.5 mM quercetin, 5 mM UDP-glucose, 30° C.; for Specific activity (nkat/mg protein) 3-O-glc: quercetin glucosylated at 3-OH; for Specific activity (nkat/mg protein) 3′-O-glc: quercetin glucosylated at 3′-OH; for Specific activity (nkat/mg protein) 4′-O-glc: quercetin glucosylated at 4′-OH; for Specific activity (nkat/mg protein) 7-O-glc: quercetin glucosylated at 7-OH
# Procedure: The assay mix (200 μl) contained 2 μg of recombinant protein, 100 mM Tris-HCl, pH 7.0, 5 mM UDP-glucose 1.4 mM 2-mercaptoethanol, and 0.5 mM of quercetin. The reaction was carried out at 30° C. for 1 h, and was quick-frozen and stored at −20° C. prior to the reverse-phase HPLC analysis
# Reverse-phase HPLC (SpectraSYSTEM HPLC systems and UV6000LP Photodiode Array Detector, ThermoQuest) analysis was carried using a Columbus 5μ C18 column (250×4.60 mm, PHENOMENEX). Quercetin glucosides were separated from the aglycone by a linear gradient of 10-75% acetonitrile in H2O (all solution contained 0.1% trifluoroacetic acid) at 1 ml/mm over 20 mm and monitored at 370 nm. Cytokinin glucosides were separated from their aglycone by a liner gradient of 10-100% methanol in H2O (for N6-isopentenyladenine (iP), N6-benzyladenine and kinetin) or 10-60% methanol in H2O (for trans-zeatin and dihydrozeatin) at 1 ml/min over 20 mm. All solution contained 0.25% acetic acid and 0.04% triethylamine, trifluoroacetic acid. The separation was monitored at 206 nm and 252 nm. The identity of the products was confirmed by comparison with authentic gluco sides.
# The activity of Arabidopsis recombinant UGTs towards quercetin was determined using the platform developed previously^15.
Molecule,Specific activity (nkat/mg protein) 3-O-glc [nkat/mg protein],Specific activity (nkat/mg protein) 3′-O-glc,Specific activity (nkat/mg protein) 4′-O-glc,Specific activity (nkat/mg protein) 7-O-glc
"UGT71B5: Arabidopsis recombinant glycosyltransferase (protein, UniProt O23382 1-478, looked up) UDP-glycosyltransferase 71B5: MKIELVFIPLPGIGHLRPTVKLAKQLIGSENRLSITIIIIPSRFDAGDASACIASLTTLSQDDRLHYESISVAKQPPTSDPDPVPAQVYIEKQKTKVRDAVAARIVDPTRKLAGFVVDMFCSSMIDVANEFGVPCYMVYTSNATFLGTMLHVQQMYDQKKYDVSELENSVTELEFPSLTRPYPVKCLPHILTSKEWLPLSLAQARCFRKMKGILVNTVAELEPHALKMFNINGDDLPQVYPVGPVLHLENGNDDDEKQSEILRWLDEQPSKSVVFLCFGSLGGFTEEQTRETAVALDRSGQRFLWCLRHASPNIKTDRPRDYTNLEEVLPEGFLERTLDRGKVIGWAPQVAVLEKPAIGGFVTHCGWNSILESLWFGVPMVTWPLYAEQKVNAFEMVEELGLAVEIRKYLKGDLFAGEMETVTAEDIERAIRRVMEQDSDVRNNVKEMAEKCHFALMDGGSSKAALEKFIQDVIENMD",0.26,— (Activity lower than 0.02 nkat/mg protein has been considered as trace activity and is not shown in the Table.),— (Activity lower than 0.02 nkat/mg protein has been considered as trace activity and is not shown in the Table.),— (Activity lower than 0.02 nkat/mg protein has been considered as trace activity and is not shown in the Table.)
"UGT78D1: Arabidopsis recombinant glycosyltransferase (protein, UniProt Q9S9P6 1-453, looked up) Flavonol-3-O-rhamnosyltransfer …: MTKFSEPIRDSHVAVLAFFPVGAHAGPLLAVTRRLAAASPSTIFSFFNTARSNASLFSSDHPENIKVHDVSDGVPEGTMLGNPLEMVELFLEAAPRIFRSEIAAAEIEVGKKVTCMLTDAFFWFAADIAAELNATWVAFWAGGANSLCAHLYTDLIRETIGLKDVSMEETLGFIPGMENYRVKDIPEEVVFEDLDSVFPKALYQMSLALPRASAVFISSFEELEPTLNYNLRSKLKRFLNIAPLTLLSSTSEKEMRDPHGCFAWMGKRSAASVAYISFGTVMEPPPEELVAIAQGLESSKVPFVWSLKEKNMVHLPKGFLDRTREQGIVVPWAPQVELLKHEAMGVNVTHCGWNSVLESVSAGVPMIGRPILADNRLNGRAVEVVWKVGVMMDNGVFTKEGFEKCLNDVFVHDDGKTMKANAKKLKEKLQEDFSMKGSSLENFKILLDEIVKV",0.24,— (Activity lower than 0.02 nkat/mg protein has been considered as trace activity and is not shown in the Table.),— (Activity lower than 0.02 nkat/mg protein has been considered as trace activity and is not shown in the Table.),— (Activity lower than 0.02 nkat/mg protein has been considered as trace activity and is not shown in the Table.)
"UGT78D3: Arabidopsis recombinant glycosyltransferase, FIG. 6 (protein, UniProt Q9LFK0 1-459, looked up) UDP-glycosyltransferase 78D3: MAKPSQPTRDSHVAVLVFPFGTHAAPLLAVTCRLATAAPSTVFSFFSTARSNSSLLSSDIPTNIRVHNVDDGVPEGFVLTGNPQHAVELFLEAAPEIFRREIKAAETEVGRKFKCILTDAFLWLAAETAAAEMKASWVAYYGGGATSLTAHLYTDAIRENVGVKEVGERMEETIGFISGMEKIRVKDTQEGVVFGNLDSVFSKTLHQMGLALPRATAVFINSFEELDPTFTNDFRSEFKRYLNIGPLALLSSPSQTSTLVHDPHGCLAWIEKRSTASVAYIAFGRVATPPPVELVAIAQGLESSKVPFVWSLQEMKMTHLPEGFLDRTREQGMVVPWAPQVELLNHEAMGVFVSHGGWNSVLESVSAGVPMICRPIFGDHAINARSVEAVWEIGVTISSGVFTKDGFEESLDRVLVQDDGKKMKVNAKKLEELAQEAVSTKGSSFENFGGLLDEVVNFG",0.16,— (Activity lower than 0.02 nkat/mg protein has been considered as trace activity and is not shown in the Table.),— (Activity lower than 0.02 nkat/mg protein has been considered as trace activity and is not shown in the Table.),— (Activity lower than 0.02 nkat/mg protein has been considered as trace activity and is not shown in the Table.)
"UGT71C5: Arabidopsis recombinant glycosyltransferase (protein, UniProt Q9FE68 1-480, looked up) UDP-glycosyltransferase 71C5: MKTAELIFVPLPETGHLLSTIEFGKRLLNLDRRISMITILSMNLPYAPHADASLASLTASEPGIRIISLPEIHDPPPIKLLDTSSETYILDFIHKNIPCLRKTIQDLVSSSSSSGGGSSHVAGLILDFFCVGLIDIGREVNLPSYIFMTSNFGFLGVLQYLPERQRLTPSEFDESSGEEELHIPAFVNRVPAKVLPPGVFDKLSYGSLVKIGERLHEAKGILVNSFTQVEPYAAEHFSQGRDYPHVYPVGPVLNLTGRTNPGLASAQYKEMMKWLDEQPDSSVLFLCFGSMGVFPAPQITEIAHALELIGCRFIWAIRTNMAGDGDPQEPLPEGFVDRTMGRGIVCSWAPQVDILAHKATGGFVSHCGWNSVQESLWYGVPIATWPMYAEQQLNAFEMVKELGLAVEIRLDYVADGDRVTLEIVSADEIATAVRSLMDSDNPVRKKVIEKSSVARKAVGDGGSSTVATCNFIKDILGDHF",0.33,— (Activity lower than 0.02 nkat/mg protein has been considered as trace activity and is not shown in the Table.),— (Activity lower than 0.02 nkat/mg protein has been considered as trace activity and is not shown in the Table.),— (Activity lower than 0.02 nkat/mg protein has been considered as trace activity and is not shown in the Table.)
"UGT73B2: Arabidopsis recombinant glycosyltransferase (protein, UniProt Q94C57 1-483, looked up) UDP-glucosyl transferase 73B2: MGSDHHHRKLHVMFFPFMAYGHMIPTLDMAKLFSSRGAKSTILTTSLNSKILQKPIDTFKNLNPGLEIDIQIFNFPCVELGLPEGCENVDFFTSNNNDDKNEMIVKFFFSTRFFKDQLEKLLGTTRPDCLIADMFFPWATEAAGKFNVPRLVFHGTGYFSLCAGYCIGVHKPQKRVASSSEPFVIPELPGNIVITEEQIIDGDGESDMGKFMTEVRESEVKSSGVVLNSFYELEHDYADFYKSCVQKRAWHIGPLSVYNRGFEEKAERGKKANIDEAECLKWLDSKKPNSVIYVSFGSVAFFKNEQLFEIAAGLEASGTSFIWVVRKTKDDREEWLPEGFEERVKGKGMIIRGWAPQVLILDHQATGGFVTHCGWNSLLEGVAAGLPMVTWPVGAEQFYNEKLVTQVLRTGVSVGASKHMKVMMGDFISREKVDKAVREVLAGEAAEERRRRAKKLAAMAKAAVEEGGSSFNDLNSFMEEFSS",0.92,— (Activity lower than 0.02 nkat/mg protein has been considered as trace activity and is not shown in the Table.),— (Activity lower than 0.02 nkat/mg protein has been considered as trace activity and is not shown in the Table.),— (Activity lower than 0.02 nkat/mg protein has been considered as trace activity and is not shown in the Table.)
"UGT72B3: Arabidopsis recombinant glycosyltransferase (protein, UniProt Q9LNI1 1-481, looked up) UDP-glycosyltransferase 72B3: MADGNTPHVAIIPSPGIGHLIPLVELAKRLLDNHGFTVTFIIPGDSPPSKAQRSVLNSLPSSIASVFLPPADLSDVPSTARIETRISLTVTRSNPALRELFGSLSAEKRLPAVLVVDLFGTDAFDVAAEFHVSPYIFYASNANVLTFLLHLPKLDETVSCEFRELTEPVIIPGCVPITGKDFVDPCQDRKDESYKWLLHNVKRFKEAEGILVNSFVDLEPNTIKIVQEPAPDKPPVYLIGPLVNSGSHDADVNDEYKCLNWLDNQPFGSVLYVSFGSGGTLTFEQFIELALGLAESGKRFLWVIRSPSGIASSSYFNPQSRNDPFSFLPQGFLDRTKEKGLVVGSWAPQAQILTHTSIGGFLTHCGWNSSLESIVNGVPLIAWPLYAEQKMNALLLVDVGAALRARLGEDGVVGREEVARVVKGLIEGEEGNAVRKKMKELKEGSVRVLRDDGFSTKSLNEVSLKWKAHQRKIDQEQESFL",0.20,— (Activity lower than 0.02 nkat/mg protein has been considered as trace activity and is not shown in the Table.),— (Activity lower than 0.02 nkat/mg protein has been considered as trace activity and is not shown in the Table.),— (Activity lower than 0.02 nkat/mg protein has been considered as trace activity and is not shown in the Table.)
